Reference: the supplement of paper PMC10567573

B1: PPEF2 (parent)
chain: AFKAAALIQRWYRRYVARLEMRRR
B2: CLINT1 (parent)
chain: VVTSAREHIYDLRSLENYHFVDEH

Variants of: B1
Experiment: protein stability index of a GFP-peptide fusion (GPS, HEK-293T) (PSI 1-6); higher = more stable
Conditions: c terminus: a fixed tail appended
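Further: lentivirally expressed fusions sorted by FACS into six bins by GFP to DsRed ratio, PSI derived from sequencing read proportions per bin multiplied by bin number.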

Variant	protein stability index
R24T	2.48
R24V	2.34
R24Y	2.87
R24W	1.99

Variants of: B2
Experiment: as above
Conditions: c terminus: a fixed tail appended

Variant	protein stability index
T3I	2.04
T3L	2.32
T3E	3.84
T3M	2.1
T3V	2.07
T3K	3.11
T3H	2.48
T3W	2.31
T3S	2.89
T3F	1.98
T3P	2.99
T3G	3.78
T3D	3.52
T3Q	3.25
T3N	2.8
T3Y	2.24
T3A	2.62
T3C	2.29
T3R	3.09
Y10T	3.8
Y10C	3.66
Y10S	3.37
Y10M	3.01
Y10P	4.21
Y10I	2.32
Y10L	2.71

Variant	protein stability index
Y10G	3.91
Y10H	2.9
Y10E	4.17
Y10K	3.64
Y10R	3.78
Y10N	3.71
Y10D	3.94
Y10V	2.67
Y10Q	3.75
Y10A	3.84
Y10F	2.42
Y10W	2.06
H8Q	3.16
H8C	2.1
H8T	2.91
H8K	2.45
H8F	1.9
H8W	2.12
H8E	2.99
H8P	3.21
H8N	2.83
H8D	3.48
H8V	2.22
H8G	3.13
H8L	2.29
H8Y	1.89

Variant	protein stability index
H8A	2.52
H8M	2.33
H8R	2.61
H8S	3.31
H8I	2.65
A5Q	3.71
A5F	2.53
A5E	3.81
A5L	1.97
A5I	3.23
A5K	2.36
A5H	2.83
A5P	3.35
A5V	2.24
A5M	2.57
A5S	3.15
A5R	2.67
A5G	3.15
A5C	2.08
A5W	2.16
A5Y	2.24
A5N	2.92
A5T	2.98
A5D	3.53
N17W	1.96
N17P	3.32

Variant	protein stability index
N17H	2.45
N17L	2.09
N17R	2.95
N17V	2.14
N17A	2.95
N17G	2.81
N17T	2.67
N17I	1.83
N17Q	2.15
N17C	2.35
N17F	1.86
N17E	2.96
N17M	2.35
N17K	2.63
N17Y	1.97
N17D	3.52
N17S	2.18
V1K	3.45
V1F	1.79
V1R	2.92
V1Y	1.5
V1C	2.54
V1Q	3.5
V1S	3.68
V1P	3.5
V1G	3.67

Variant	protein stability index
V1M	2.88
V1E	3.96
V1D	4.06
V1I	2.67
V1W	2.47
V1A	3.89
V1T	3.63
V1H	3.35
V1L	2.62
V1N	3.8
E7M	1.39
E7V	2.26
E7T	2.73
E7L	2.3
E7F	1.9
E7P	2.44
E7H	2.17
E7A	2.41
E7W	2.44
E7C	1.86
E7Q	1.85
E7D	2.29
E7R	2.07
E7Y	2.57
E7S	2.4
E7K	2.77

Variant	protein stability index
E7G	1.73
E7N	2.64
R6V	2.31
R6G	3.04
R6P	3.08
R6D	3.63
R6T	2.75
R6N	3.14
R6I	1.84
R6F	1.55
R6H	3.07
R6C	2.91
R6E	3.87
R6L	1.75
R6Y	2.35
R6S	3.93
R6M	2.33
R6A	2.45
R6Q	3.4
R6K	3.48
R6W	3.17
E16Q	2.38
E16C	1.93
E16D	2.77
E16L	2.47
E16W	1.83

Variant	protein stability index
E16T	2.46
E16G	2.11
E16N	2.62
E16Y	1.56
E16K	2.59
E16I	2.12
E16H	2.26
E16R	2.43
E16V	2.36
E16A	2.19
E16P	3.32
E16S	2.67
E16F	2.13
E16M	3.01
S4A	2.41
S4Y	1.48
S4G	2.73
S4P	3.4
S4N	2.84
S4R	2.65
S4M	2.24
S4V	2.47
S4F	2.03
S4T	3.18
S4D	3.82
S4L	1.95

Variant	protein stability index
S4W	2.48
S4I	2.1
S4C	1.64
S4E	3.04
S4H	2.82
S4Q	2.91
S4K	2.52
V2C	2.9
V2E	3.67
V2Q	3.53
V2Y	2.67
V2W	2.38
V2R	3.13
V2K	3.01
V2N	3.62
V2S	3.12
V2H	3.44
V2D	4.26
V2A	3.34
V2L	3.23
V2T	3.24
V2G	3.34
V2M	3.2
V2F	2.56
V2I	2.3
V2P	4.19

Variant	protein stability index
S14Q	2.31
S14H	2.25
S14D	3.24
S14E	2.87
S14A	3.52
S14Y	2.02
S14V	2.11
S14L	2.72
S14N	3.07
S14C	2.24
S14W	2.2
S14M	2.49
S14R	2.44
S14T	2.63
S14I	2.15
S14K	2.69
S14G	3.45
S14F	2.57
S14P	2.24
I9H	3.24
I9D	3.54
I9A	2.98
I9F	2.61
I9E	3.62
I9T	3.31
I9S	4.07

Variant	protein stability index
I9Q	4.09
I9C	2.83
I9N	4.5
I9G	3.83
I9W	2.21
I9K	3.48
I9M	3.06
I9P	3.59
I9V	3.16
I9Y	2.15
I9R	3.66
I9L	2.83
D11G	2.61
D11T	2.17
D11P	2.56
D11A	2.79
D11H	2.3
D11Y	2.02
D11V	2.89
D11C	2.4
D11R	2.62
D11K	2.13
D11I	2.83
D11F	1.25
D11M	2.62
D11S	2.64

Variant	protein stability index
D11L	2.44
D11E	2.38
D11W	2.13
D11Q	2.54
D11N	2.63
R13Q	3.06
R13E	3.73
R13V	2.86
R13S	3.18
R13D	3.59
R13N	3.35
R13T	3.35
R13M	2.9
R13P	3.58
R13Y	1.95
R13G	2.7
R13H	2.67
R13F	1.73
R13K	3.45
R13I	2.49
R13W	2.08
R13A	3.55
R13L	1.97
R13C	2.38
L15G	3.56
L15A	3.32

Variant	protein stability index
L15T	3.2
L15N	3.1
L15H	3.58
L15D	3.8
L15I	2.99
L15M	2.62
L15R	3.53
L15Y	2.91
L15V	3.04
L15K	3.36
L15F	2.4
L15E	3.46
L15Q	3.66
L15P	3.31
L15W	2.56
L15S	2.95
L15C	3.05
L12N	3.78
L12C	2.61
L12S	3.13
L12A	3.42
L12R	3.6
L12M	3.39
L12H	3.32
L12Y	2.4
L12D	4.08

Variant	protein stability index
L12K	3.78
L12T	3.99
L12Q	4.09
L12W	2.7
L12F	2.61
L12I	2.89
L12V	2.7
L12E	4.03
L12G	3.78
L12P	3.21
Y18H	3.59
Y18I	3
Y18G	3.78
Y18E	4.26
Y18F	2.5
Y18A	3.65
Y18D	4.14
Y18C	3.3
